Molecular target: T1, Aurora A kinase (endogenous, MDA-MB-231 cells) (human, UniProt O14965 1-403)
T1 sequence (looked up): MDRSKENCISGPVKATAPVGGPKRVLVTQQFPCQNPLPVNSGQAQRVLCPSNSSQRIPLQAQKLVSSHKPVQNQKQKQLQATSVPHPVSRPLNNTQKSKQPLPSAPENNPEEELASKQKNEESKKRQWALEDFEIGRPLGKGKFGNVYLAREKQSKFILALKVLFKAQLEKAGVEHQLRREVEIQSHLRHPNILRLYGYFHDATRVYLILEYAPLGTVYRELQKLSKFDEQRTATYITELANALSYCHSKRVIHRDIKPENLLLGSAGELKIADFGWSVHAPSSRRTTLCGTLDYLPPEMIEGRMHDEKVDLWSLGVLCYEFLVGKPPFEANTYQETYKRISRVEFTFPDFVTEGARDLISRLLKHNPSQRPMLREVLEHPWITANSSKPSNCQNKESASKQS
Assay: HA-tagged truncated LIMK2 mutants expressed in MDA cells, isolated and analyzed for Aurora A binding
Experimental: LIMK2 contains two LIM domains (12-129), a PDZ domain (152-236), an S/P domain (240-328) and a kinase domain (331-601) (Scott and Olson (2007) J. Mol. Med. 85, 555-568). […] These mutants were transiently expressed in MDA cells, isolated and analyzed for Aurora A binding.
We next investigated whether association of LIM domains of LIMK2 is sufficient for Aurora A stabilization. […] After 30 h, cells were lysed, HA-tagged LIMK2 proteins were isolated and probed for Aurora A binding. […] After 30 h, cells were lysed, HA-tagged LIMK2 proteins were isolated and probed for Aurora A binding.

B1: HA-tagged (1-145) LIMK2 (other, not shown: small tags and cut ends)
chain: MSALAGEDVWRCPGCGDHIAPSQIWYRTVNETWHGSCFRCSECQDSLTNWYYEKDGKLYCPKDYWGKFGEFCHGCSLLMTGPFMVAGEFKYHPECFACMSCKVIIEDGDAYALVQHATLYCGKCHNEVVLAPMFERLSTESVQEQ
notes: also called truncated LIMK2 mutant containing two LIM domains
B1: binds.

— patent publication US20130253037A1 (PURDUE RESEARCH FOUNDATION, published 2013)
